Data on 2 substances can be found in publication PMC6635019.

Several values for one entry are separate records, joined by “and”; a condition that tells them apart may be missing. Equal entries are not always repeated.

For one assay, the target named is LL-37 (human). Put plainly: native MS.
In the next assay the target is gramicidin A. The experiment in a line: native MS.

What is called stoichiometry N is a count of units in the complex or per binding partner.

Turning to LL-37 (peptide), the stoichiometry N with LL-37 (human) was 2 and 3 and 4.

Substance gramicidin A (peptide) yielded a stoichiometry N in the assay with gramicidin A of 2.
